From the DeepSol protein solubility set

Test: soluble on expression in E. coli; label from the status in PepcDB or PDB records
With “MSLAKSYNAGINIIPTPRSLEKREGSFKLSDGVSIGAITPEAKKIATYFAAKISLATGYDVKVEDKGEITLVLDSCATFSPEGYALDVESSRVQVTACSPRGLFYGMQSFLQLLPAEIESAGIVRDVDWEAPAANIIDSPRFAYRGIHMDPCRHFMTVEEVKKQIDVLSMFKINTIHWHLTDDQGWRIEIKQYPGLAEIGGRRIEGEGVEYGPFYYTQEEIKDIVSYAAERFITIIPELEIPGHELAAISAYPGLSCKGDPVTPRNIWGVEDIVMCPGKESVFTFLENVIDEMVALFPGTYFHIGGDECPKESWKSCPLCQKRILEEGIKPDGKHTSEQLLHTYVVERIGKYLARYDKKIIGWDEILEGKPDSTATIMSWRGDAGGISAALSGHDAIMSPGPNGLYLDYYQGDSKIEPIAIGGCSTLEKVYNYNPVPDTLVLIGKDHHIIGVQANNWSEYFYNNDIREYHMYPRSLALAEVAWTDAKRKNYVDFERRINNAYVRLDGHGVNYHIPLPEQPGGSCDHIAFTDSVSLEFTTSRPISLVYTLDGTEPGVSSEIYTSPLSFYQNGILKIASLLSSGKLSKVRTIQIEKQVLLPAVDVEGSFHGLNMEVTYGMFLNMQEFMKTGKSVDVSTDIRETGELTSFVPSTNSMRDVRQYAAVATGFIDIPENGEGHHHHHH” the “soluble on expression in E. coli” value was “not soluble”. With “PPYTIVYFPVRGRAEAMRMLLADQGQSWKEEVVTIDTWMQGLLKPTCLYGQLPKFEDGDLTLYQSNAILRHLGRSLGLYGKNQREAAQMDMVNDGVEDLRGKYVTLIYTNYENGKNDYVKALPGHLKPFETLLSQNQGGKAFIVGDQISFADYNLLDLLLIHQVLAPGCLDNFPLLSAYVARLSARPKIKAFLSSPEHVNRPINGNGKQ” the “soluble on expression in E. coli” value was “soluble”. For “GPDFNWTSVLNLTHNRNKIVALDGDIKQSVEGSWFIHKIGLPYNSFYVKEFAGVDPSTGKGLYYLNTQDEKGNYNREMTDDASKAQAIPYKSADPKISGGFTNILSYKWFDLGLTFTYSLGGYSFDKTGTLIETDGSKEKSYNLPVYALDRWQKPGDRTDVPRFVLEQGAGPQNSSRYIHSTDHIRLKNLTLGFTLPGRWVQKALIENARVYFSGSNLLTWAKWKQYDPEVPVNGEVFCEAPPMRTFNFGVEITF”, the “soluble on expression in E. coli” value was “not soluble”. For “GYQCQHNLNYWRFGDYLGIGCGSHGKLSFADGRIIRTTKVKHPRGYLAAYQNMVKPYLHTEQLVADEDRPFEFFMNRFRLMEACPKQDYVDTTGLPLSTIQDTIDWALEMGYLSETETHWQITEKGKLFLNDLLEAFMAEEDEE”, the “soluble on expression in E. coli” value was “not soluble”. With “HMDIRTITSSDYEMVTSVLNEWWGGRQLKEKLPRLFFEHFQDTSFITSEHNSMTGFLIGFQSQSDPETAYIHFSGVHPDFRKMQIGKQLYDVFIETVKQRGCTRVKCVTSPVNKVSIAYHTKLGFDIEKGTKTVNGISVFANYDGPGQDRVLFVKNI” the “soluble on expression in E. coli” value was “soluble”. With “MNHDIPALALGPQGEVMAHAIDACVHCGFCLPACPTYALLGDEMDSPRGRIVLMKEVLEGSLELEDAAPHLDRCLGCQGCVTACPSGVPYGELITSFRGWSEPQRERTPLDRAKRYAILKALPAPKLFSVAARVGQFAKPLAPALPAALKAPLDLLPEHVPAMQPQPRVTPARGQRRGRVAFLAGCAQQALTPNFNAATLRVLSRNGIEVVIPEGQGCCGAAALHTGARDEALRLVRANLAAFNPDEYDAILSNAAGCGAGLKEYPVVLHGLPDEAQAQAFAAKVQDISEYLAGLLRDGELAPLMPTREPVKVAYHDACHLAHAQGVRSAPRELLRAIPGVTLTEIPEGDLCCGSAGTYNLEQPELANQLGQRKAKNILGTQPDLIASGNIGCHTQIQSHVRRQGSPVPVMHTVEVLDLAYRGELLEHHHHHH” the “soluble on expression in E. coli” value was “not soluble”. With “MGSSHHHHHHSSGRENLYFQGHMCILMATRAHPDYELILISNRDEFLARKTHATCWHNNDFILSPYDLAKTSAEKQIFGTWSGINKEGKLATILNLKLDNEQNNTKSRSRGLLPFIFLSIHKADFEDWDNYKKFEGHYDGLKSTGDFNFFYGDVIKKQYKVIDSLGRTFDVLSSTCRKDLDSYMVVSNGKFYDSSSIPGQAWEKVKVARDSLENLVLENIESDEEKIISSCFQLASKSSLPSTISNPDVLQMVDPNVTMNTIYVPPLRRPPRDDLGASIPDGDYYGTRSQIVLLVSKDSTRVTFIERVLYSSDEDVRKYSVTSPKEEKRFKFKL” the “soluble on expression in E. coli” value was “soluble”. For “MKTSSIIEFKNPISKYQHDVDDGLHSDYKVINNEFIHKSIRILENYQFIQSLSHADKSTLIQHLKIRKYYHNQTVYNQNDPCTDINILLEGALKLGWSTSQGKYHTDIFVPSGTLINIVPIVTGQPLLHDHIAQGRTVIANLPGQLFVDVIRNNADALFMVLKLICVRTQLNREQNFIYSTETLQTRLAKKLVFLVDYHSYQDKDKILLNLKLSQENLAELLQTSRQSINKELAALSNQNIIEVKYNQIFILDFEKLSNIAQTHQFHSTTKFL”, the “soluble on expression in E. coli” value was “not soluble”.
